Reference: patent US20240025959A1 (UNIVERSITY OF SOUTHERN CALIFORNIA, published 2024)

T1: ULK1 (human, UniProt O75385 1-1050)
T1 construct: also called HA-ULK1
T1 sequence (looked up): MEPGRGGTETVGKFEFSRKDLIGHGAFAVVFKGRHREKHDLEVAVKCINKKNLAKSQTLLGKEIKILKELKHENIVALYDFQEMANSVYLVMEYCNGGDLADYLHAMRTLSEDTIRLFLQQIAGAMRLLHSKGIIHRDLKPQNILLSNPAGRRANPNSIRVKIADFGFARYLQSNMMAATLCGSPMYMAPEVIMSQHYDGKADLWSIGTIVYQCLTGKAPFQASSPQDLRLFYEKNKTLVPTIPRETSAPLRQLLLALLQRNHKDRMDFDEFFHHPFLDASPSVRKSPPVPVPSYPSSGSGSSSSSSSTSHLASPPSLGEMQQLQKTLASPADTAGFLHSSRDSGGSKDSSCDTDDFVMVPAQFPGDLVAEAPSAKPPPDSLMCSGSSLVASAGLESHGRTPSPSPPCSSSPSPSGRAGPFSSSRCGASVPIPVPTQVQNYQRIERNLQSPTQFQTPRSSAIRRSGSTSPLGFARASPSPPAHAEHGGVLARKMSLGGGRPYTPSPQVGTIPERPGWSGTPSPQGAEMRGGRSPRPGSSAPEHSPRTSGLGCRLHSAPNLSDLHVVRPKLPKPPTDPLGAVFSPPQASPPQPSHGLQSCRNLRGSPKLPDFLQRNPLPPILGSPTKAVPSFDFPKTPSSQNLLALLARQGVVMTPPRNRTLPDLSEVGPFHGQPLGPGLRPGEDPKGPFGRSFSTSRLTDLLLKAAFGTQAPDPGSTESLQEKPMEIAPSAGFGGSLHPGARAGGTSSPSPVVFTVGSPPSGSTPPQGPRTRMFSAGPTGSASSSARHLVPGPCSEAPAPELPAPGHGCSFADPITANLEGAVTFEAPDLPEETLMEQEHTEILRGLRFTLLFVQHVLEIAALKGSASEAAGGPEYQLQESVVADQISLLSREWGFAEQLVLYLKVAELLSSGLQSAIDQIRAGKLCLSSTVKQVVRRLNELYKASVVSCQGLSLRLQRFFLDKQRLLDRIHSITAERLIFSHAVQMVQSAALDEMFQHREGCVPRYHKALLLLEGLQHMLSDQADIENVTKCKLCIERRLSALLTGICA

T2: ATG9A (human) (human, UniProt Q7Z3C6 1-839)
T2 construct: Transmembrane protein; co-IP from RIPA lysates; Tagged and endogenous human forms kept under one id; also called Flag-ATG9A; HA-ATG9A
T2 sequence (looked up): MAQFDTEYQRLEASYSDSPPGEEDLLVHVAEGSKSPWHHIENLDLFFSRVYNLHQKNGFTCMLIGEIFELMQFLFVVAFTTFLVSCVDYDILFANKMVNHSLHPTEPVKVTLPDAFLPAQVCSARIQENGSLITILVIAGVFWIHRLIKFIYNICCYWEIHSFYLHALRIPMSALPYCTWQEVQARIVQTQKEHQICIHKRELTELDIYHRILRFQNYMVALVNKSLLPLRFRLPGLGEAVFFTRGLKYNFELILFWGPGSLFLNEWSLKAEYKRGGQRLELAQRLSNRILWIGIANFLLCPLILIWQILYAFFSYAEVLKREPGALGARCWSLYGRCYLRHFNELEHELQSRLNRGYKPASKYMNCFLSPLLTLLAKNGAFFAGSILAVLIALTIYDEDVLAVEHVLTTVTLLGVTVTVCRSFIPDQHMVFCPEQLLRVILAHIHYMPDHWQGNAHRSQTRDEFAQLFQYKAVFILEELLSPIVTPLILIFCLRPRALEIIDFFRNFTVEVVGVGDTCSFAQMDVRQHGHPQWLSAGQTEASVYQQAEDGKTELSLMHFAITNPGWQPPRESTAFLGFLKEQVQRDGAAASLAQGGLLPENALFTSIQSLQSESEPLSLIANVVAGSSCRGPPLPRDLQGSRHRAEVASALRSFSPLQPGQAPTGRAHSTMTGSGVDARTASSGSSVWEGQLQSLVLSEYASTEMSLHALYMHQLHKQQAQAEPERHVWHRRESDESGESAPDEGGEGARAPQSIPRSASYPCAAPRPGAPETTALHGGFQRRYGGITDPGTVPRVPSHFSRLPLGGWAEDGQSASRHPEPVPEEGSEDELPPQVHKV

T3: ATG13 (human, UniProt O75143 1-517, limits assumed)
T3 sequence (looked up): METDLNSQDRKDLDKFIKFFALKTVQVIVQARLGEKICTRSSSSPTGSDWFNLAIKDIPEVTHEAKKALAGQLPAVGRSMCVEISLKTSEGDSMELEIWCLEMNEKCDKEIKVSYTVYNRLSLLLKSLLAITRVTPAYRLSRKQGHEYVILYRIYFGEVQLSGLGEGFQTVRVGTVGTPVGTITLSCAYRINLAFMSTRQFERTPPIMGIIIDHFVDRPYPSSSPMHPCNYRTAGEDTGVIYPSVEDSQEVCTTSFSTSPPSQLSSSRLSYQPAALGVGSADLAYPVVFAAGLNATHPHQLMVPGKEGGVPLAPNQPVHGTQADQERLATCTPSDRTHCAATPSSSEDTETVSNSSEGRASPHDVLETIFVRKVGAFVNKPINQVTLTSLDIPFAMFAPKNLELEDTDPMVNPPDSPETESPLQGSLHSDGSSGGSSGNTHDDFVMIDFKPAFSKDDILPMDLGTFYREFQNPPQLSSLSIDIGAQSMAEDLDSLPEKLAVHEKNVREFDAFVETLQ

T4: WIPI1 (human, UniProt Q5MNZ9 1-446)
T4 sequence (looked up): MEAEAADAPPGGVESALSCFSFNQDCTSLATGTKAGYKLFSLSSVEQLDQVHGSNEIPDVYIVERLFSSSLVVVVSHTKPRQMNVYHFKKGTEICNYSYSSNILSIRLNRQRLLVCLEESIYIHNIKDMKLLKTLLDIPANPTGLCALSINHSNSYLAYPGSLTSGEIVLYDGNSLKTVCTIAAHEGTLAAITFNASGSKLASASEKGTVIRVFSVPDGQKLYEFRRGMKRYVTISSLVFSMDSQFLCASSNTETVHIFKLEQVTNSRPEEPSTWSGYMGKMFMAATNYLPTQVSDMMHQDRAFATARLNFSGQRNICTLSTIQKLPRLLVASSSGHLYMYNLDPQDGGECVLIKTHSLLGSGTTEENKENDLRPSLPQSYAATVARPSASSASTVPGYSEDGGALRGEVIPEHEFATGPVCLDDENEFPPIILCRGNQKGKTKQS

B1: Beclin 2 (human, full length) (other)
chain: MSSIRFLCQRCHQALKLSGSSESRSLPAAPAPTSGQAEPGDTREPGVTTREVTDAEEQQDGASSRSPPGDGSVSKGHANIFTLLGELGAMHMLSSIQKAAGDIFDIVSGQAVVDHPLCEECTDSLLEQLDIQLALTEADSQNYQRCLETGELATSEDEAAALRAELRDLELEEARLVQELEDVDRNNARAAADLQAAQAEAAELDQQERQHYRDYSALKRQQLELLDQLGNVENQLQYARVQRDRLKEINCFTATFEIWVEGPLGVINNFRLGRLPTVRVGWNEINTAWGQAALLLLTLANTIGLQFQRYRLIPCGNHSYLKSLTDDRTELPLFCYGGQDVFLNNKYDRAMVAFLDCMQQFKEEAEKGELGLSLPYGIQVETGLMEDVGGRGECYSIRTHLNTQELWTKALKFMLINFKWSLIWVASRYQK
notes: All tagged and endogenous human forms are kept under this one id; the form used is named under assay; also called BECN2; Flag-Beclin 2
B2: ERK1 (enzyme, UniProt P27361 1-379, looked up)
chain: MAAAAAQGGGGGEPRRTEGVGPGVPGEVEMVKGQPFDVGPRYTQLQYIGEGAYGMVSSAYDHVRKTRVAIKKISPFEHQTYCQRTLREIQILLRFRHENVIGIRDILRASTLEAMRDVYIVQDLMETDLYKLLKSQQLSNDHICYFLYQILRGLKYIHSANVLHRDLKPSNLLINTTCDLKICDFGLARIADPEHDHTGFLTEYVATRWYRAPEIMLNSKGYTKSIDIWSVGCILAEMLSNRPIFPGKHYLDQLNHILGILGSPSQEDLNCIINMKARNYLQSLPSKTKVAWAKLFPKSDSKALDLLDRMLTFNPNKRITVEEALAHPYLEQYYDPTDEPVAEEPFTFAMELDDLPKERLKELIFQETARFQPGVLEAP
notes: also called Mapk3

Assays:
ULK1 = target: T1, ULK1; assay: co-IP with anti-Flag beads and immunoblot; 293T cells co-transfected with Flag-Beclin 2 and HA-ULK1, complete or starvation medium (FIG. 10B)
Protocol: (§1) The secondary antibody (Veriblot for IP detection reagent HRP) that only recognized native IgG but not denatured IgG was applied for immunoblotting of proteins in immunoprecipitates. For immunoprecipitation of Flag-tagged proteins, cell lysates were incubated with anti-Flag beads (Sigma) at 4° C. overnight. The beads were washed four times with RIPA lysis buffer, and immunoprecipitates were eluted with 2×SDS loading buffer. Immunoblotting was performed by loading the samples on SDS-PAGE gels, conducting electrophoresis, transferring the samples to PVDF membranes (Bio-Rad), and then incubating the membranes with the indicated antibodies. For all immunoblots, the LumiGLO Chemiluminescent Substrate System from KPL (Gaithersburg, MD) was used for protein detection.

ATG9A (human) = target: T2, ATG9A (human); assay: co-IP with anti-Flag beads and immunoblot; 293T cells co-transfected with HA-Beclin 2 and a Flag-tagged plasmid (FIG. 10A)
FIP200 = target: T5, FIP200 (human, UniProt Q8TDY2 1-1594); assay: co-IP and immunoblot in 293T cells, as summed up in the discussion
T5 construct: also called Flag-FIP200; hFIP200

ATG13 = target: T3, ATG13; assay: as above
WIPI1 = target: T4, WIPI1; assay: endogenous co-IP; 293T cell lysates immunoprecipitated with antibodies against each protein, immunoblot (FIG. 9D)
Protocol: as §1

ERK5 = ERK5 (UniProt Q13164 1-816); assay: co-IP with anti-Flag beads and immunoblot; 293T cells co-transfected with Flag-Beclin 2 and an HA-tagged plasmid (FIG. 8A)
Protocol: as §1

[1] = target: B1; assay: as above
Protocol: as §1

T5 sequence (Q8TDY2 whole entry): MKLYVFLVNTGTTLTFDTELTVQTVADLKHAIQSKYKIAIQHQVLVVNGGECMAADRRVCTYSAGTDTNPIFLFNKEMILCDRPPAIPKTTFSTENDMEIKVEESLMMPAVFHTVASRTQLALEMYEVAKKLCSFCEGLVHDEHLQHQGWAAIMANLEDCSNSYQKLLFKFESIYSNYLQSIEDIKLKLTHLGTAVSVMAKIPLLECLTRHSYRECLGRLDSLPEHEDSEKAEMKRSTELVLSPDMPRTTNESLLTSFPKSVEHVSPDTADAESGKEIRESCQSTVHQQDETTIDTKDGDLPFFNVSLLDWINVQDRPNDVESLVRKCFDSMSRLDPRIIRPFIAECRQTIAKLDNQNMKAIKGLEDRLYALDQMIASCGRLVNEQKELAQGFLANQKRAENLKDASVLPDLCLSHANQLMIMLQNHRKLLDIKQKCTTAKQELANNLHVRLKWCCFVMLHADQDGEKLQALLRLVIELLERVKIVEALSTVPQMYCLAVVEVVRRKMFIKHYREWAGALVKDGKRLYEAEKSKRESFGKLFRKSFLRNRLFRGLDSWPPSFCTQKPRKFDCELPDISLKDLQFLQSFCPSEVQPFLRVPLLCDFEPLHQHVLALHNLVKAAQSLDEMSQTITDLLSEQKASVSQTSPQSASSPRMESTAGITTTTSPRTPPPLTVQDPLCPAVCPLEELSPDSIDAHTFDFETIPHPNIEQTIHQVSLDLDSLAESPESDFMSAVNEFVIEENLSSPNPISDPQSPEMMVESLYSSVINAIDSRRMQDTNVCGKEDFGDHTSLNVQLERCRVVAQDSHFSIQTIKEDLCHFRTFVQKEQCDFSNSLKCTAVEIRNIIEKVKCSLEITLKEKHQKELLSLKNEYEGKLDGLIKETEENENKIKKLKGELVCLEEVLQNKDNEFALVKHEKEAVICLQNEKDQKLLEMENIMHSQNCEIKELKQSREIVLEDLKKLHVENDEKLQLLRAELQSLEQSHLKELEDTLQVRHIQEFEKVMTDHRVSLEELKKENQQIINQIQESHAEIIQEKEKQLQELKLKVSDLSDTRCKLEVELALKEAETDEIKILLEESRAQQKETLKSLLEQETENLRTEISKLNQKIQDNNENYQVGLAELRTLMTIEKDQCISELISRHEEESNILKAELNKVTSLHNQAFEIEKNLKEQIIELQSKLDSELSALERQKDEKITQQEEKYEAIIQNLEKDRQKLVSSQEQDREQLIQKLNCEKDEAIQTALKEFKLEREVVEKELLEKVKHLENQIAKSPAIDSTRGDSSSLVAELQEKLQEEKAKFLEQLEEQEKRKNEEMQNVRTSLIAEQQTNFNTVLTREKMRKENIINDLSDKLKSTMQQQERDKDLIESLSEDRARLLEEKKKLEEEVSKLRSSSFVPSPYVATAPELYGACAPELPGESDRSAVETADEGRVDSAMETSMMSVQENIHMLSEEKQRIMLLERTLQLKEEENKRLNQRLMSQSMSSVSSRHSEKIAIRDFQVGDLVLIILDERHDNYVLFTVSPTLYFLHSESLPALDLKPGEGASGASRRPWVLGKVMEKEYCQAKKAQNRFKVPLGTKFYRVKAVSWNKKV
ERK5, sequence (Q13164 whole entry): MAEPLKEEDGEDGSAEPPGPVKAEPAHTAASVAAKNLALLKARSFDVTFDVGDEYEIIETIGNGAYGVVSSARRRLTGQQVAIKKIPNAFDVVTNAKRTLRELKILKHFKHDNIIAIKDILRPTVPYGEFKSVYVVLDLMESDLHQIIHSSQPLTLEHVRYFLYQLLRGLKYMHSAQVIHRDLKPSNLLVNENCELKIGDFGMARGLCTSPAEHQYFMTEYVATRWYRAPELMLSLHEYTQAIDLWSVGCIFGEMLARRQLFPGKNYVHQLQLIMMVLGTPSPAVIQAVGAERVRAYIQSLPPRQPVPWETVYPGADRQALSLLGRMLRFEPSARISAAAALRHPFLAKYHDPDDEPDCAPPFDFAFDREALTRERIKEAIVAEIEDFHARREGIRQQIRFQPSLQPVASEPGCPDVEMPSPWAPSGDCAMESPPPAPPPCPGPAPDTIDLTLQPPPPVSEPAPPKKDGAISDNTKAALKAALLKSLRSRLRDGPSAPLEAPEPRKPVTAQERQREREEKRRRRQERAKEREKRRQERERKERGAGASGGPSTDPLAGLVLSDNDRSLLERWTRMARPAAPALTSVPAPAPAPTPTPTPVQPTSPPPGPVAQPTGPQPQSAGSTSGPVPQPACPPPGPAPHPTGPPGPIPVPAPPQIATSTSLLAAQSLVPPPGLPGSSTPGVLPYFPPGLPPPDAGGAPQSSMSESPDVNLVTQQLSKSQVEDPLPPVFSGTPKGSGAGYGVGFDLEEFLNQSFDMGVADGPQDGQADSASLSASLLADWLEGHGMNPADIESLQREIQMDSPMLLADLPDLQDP

B1
binding result (ULK1): binds
binding result (ATG9A (human)): binds
binding result (FIP200): no binding
binding result (ATG13): no binding
binding result (WIPI1): binds
binding result (ERK5): no binding

B2
binding result [1]: no binding
